Results: patent US20220119534A1 (DRAGONFLY THERAPEUTICS, published 2022)
Values joined by “and” are separate entries in the source; they are usually repeats but may differ in a detail not shown here. Equal entries are not always repeated. Each block holds one binder with its values, some of them ahead of it.

Legend:
mFc-hNKG2D [1] = target: T1, mFc-hNKG2D (human, UniProt P26718 73-216); assay: SPR Biacore 8K 37 C; mFc-hNKG2D captured on anti-mFc chip, TriNKET as analyte; 1:1 kinetic fit; after 2 wks 40 C at pH 8.0
T1 construct: extracellular domain; Made in house (Dragonfly Tx); the order of tag and ECD follows the name mFc-hNKG2D; also called mFc-tagged human NKG2D; not shown: mouse Fc tag
T1 sequence (looked up): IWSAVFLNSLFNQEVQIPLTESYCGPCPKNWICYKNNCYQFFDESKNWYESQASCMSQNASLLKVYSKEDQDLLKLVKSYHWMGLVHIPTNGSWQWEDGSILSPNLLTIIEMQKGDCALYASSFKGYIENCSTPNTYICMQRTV

[2] = target: T2, Human CD16a V158 (FcγRIIIa V158) (human, UniProt P08637 17-208, biotinylated (site not stated)); assay: SPR; biotinylated CD16a V158 captured on SA chip, TriNKET as analyte; 1:1 kinetic fit; control sample, n=3
T2 construct: V158 is the allele name in mature numbering; also called hCD16aV; hCD16a V158

Human CD16b = target: T3, Human CD16b (human, UniProt O75015 17-200, limits assumed, biotinylated); assay: SPR, steady state fit
T3 construct: Bought recombinant receptor; also called hFcγRIIIb

Human CD64 = target: T4, Human CD64 (human, UniProt P12314 16-288, biotinylated); assay: SPR, human CD64 captured; average for AB0192
T4 construct: Bought recombinant receptor; also called hFcγRI; Human CD64 (FcγRI)

De-sialylated CLEC12A = target: T5, De-sialylated CLEC12A (human, UniProt Q5QGZ9 65-265, treated with neuraminidase (terminal sialic acids removed)); assay: SPR, de-sialylated CLEC12A; average of 3 replicates
T5 construct: Recombinant human CLEC12A after neuraminidase; also called de-sialylated hCLEC12A
T5 sequence: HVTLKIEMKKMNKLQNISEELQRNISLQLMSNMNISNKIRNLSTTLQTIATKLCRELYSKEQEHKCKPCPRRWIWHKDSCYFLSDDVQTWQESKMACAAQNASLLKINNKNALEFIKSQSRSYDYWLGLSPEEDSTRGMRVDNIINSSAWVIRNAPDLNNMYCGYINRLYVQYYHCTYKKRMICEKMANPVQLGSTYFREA

Human CLEC12A-His = target: T6, Human CLEC12A-His (human, UniProt Q5QGZ9 65-265); assay: SPR; sample after 4 weeks at 40 C in HST pH 6.0
T6 construct: Recombinant soluble protein made in house; also called hCLEC12A-His; hCLEC12A; not shown: His tag
T6 sequence: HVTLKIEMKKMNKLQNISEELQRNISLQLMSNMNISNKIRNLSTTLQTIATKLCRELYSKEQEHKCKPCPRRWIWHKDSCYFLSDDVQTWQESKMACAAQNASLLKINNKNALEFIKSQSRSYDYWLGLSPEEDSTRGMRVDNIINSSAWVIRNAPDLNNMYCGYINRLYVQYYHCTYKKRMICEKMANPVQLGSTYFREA

Human CD16a V158 = target: T7, Human CD16a V158 (human, UniProt P08637 17-208, biotinylated); assay: SPR; sample after 4 weeks at 40 C in HST pH 6.0
T7 construct: Bought recombinant receptor; also called hCD16a (V158); hFcγRIIIa V158

mFc-hNKG2D [3] = target: T8, mFc-hNKG2D (human, UniProt P26718 73-216); assay: SPR; sample after 4 weeks at 40 C in HST pH 6.0
T8 construct: extracellular domain; Recombinant mFc-tagged NKG2D dimer, made in house; also called human NKG2D; not shown: mouse Fc tag
T8 sequence (looked up): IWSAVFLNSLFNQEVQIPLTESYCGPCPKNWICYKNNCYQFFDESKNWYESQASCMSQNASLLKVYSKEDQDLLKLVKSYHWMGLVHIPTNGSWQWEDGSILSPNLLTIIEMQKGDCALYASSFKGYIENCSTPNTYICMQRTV

Human CD32b = target: T9, Human CD32b (human, UniProt P31994 46-217, limits assumed, biotinylated); assay: SPR, steady state fit
T9 construct: Bought recombinant receptor; also called hFcγRIIb
T9 sequence (looked up): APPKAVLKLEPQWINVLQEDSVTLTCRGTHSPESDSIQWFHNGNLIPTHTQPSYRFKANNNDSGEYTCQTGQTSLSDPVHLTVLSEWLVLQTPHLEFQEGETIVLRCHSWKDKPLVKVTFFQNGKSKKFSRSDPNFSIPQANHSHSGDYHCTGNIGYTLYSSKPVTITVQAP

T4 sequence (P12314 16-288 limits assumed): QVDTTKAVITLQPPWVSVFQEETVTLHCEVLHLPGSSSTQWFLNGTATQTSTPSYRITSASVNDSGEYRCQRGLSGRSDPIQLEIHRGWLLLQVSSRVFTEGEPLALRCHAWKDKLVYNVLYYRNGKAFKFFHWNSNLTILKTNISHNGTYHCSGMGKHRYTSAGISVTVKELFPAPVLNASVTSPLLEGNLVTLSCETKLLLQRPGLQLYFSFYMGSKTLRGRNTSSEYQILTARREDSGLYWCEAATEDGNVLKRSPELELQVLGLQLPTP
T2 sequence (P08637 17-208 F176V limits assumed): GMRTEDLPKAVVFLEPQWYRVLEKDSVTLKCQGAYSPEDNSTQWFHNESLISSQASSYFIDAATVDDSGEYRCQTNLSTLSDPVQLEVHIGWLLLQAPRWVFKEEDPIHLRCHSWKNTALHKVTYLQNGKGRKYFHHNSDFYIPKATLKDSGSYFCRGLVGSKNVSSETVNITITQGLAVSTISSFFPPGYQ
T7 sequence (P08637 17-208 F176V limits assumed): as above
T3 sequence (O75015 17-200 limits assumed): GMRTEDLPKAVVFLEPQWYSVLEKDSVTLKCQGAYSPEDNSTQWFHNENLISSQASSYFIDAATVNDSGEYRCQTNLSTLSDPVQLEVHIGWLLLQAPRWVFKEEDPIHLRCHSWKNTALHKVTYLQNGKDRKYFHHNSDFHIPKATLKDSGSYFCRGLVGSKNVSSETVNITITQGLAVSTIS

Kd (mFc-hNKG2D [1]): 0.905 µM
koff (mFc-hNKG2D [1]): 0.122 s⁻¹
kon (mFc-hNKG2D [1]): 135000 M⁻¹ s⁻¹
Kd [2]: 0.212 µM
koff [2]: 0.024 s⁻¹
kon [2]: 113000 M⁻¹ s⁻¹
B1: F3'-1602 TriNKET (bispecific antibody, human IgG1, kappa)
chain: QLQLQESGPGLVKPSETLSLTCTVSGFSLTNYGLHWIRQPPGKCLEWIGVIWSGGKTDYNPSLKSRVTISKDTSKNQFSLKLSSVQAADTAVYYCAKYDYDDSLDYWGQGTLVTVSSGGGGSGGGGSGGGGSGGGGSDIQMTQSPSSLSASVGDRVTITCHASQNINFWLSWYQQKPGKAPKLLIYEASNLHTGVPSRFSGSGSGTRFTLTISSLQPEDIATYYCQQSHSYPLTFGCGTKLEIKGSDKTHTCPPCPAPELLGGPSVFLFPPKPKDTLMISRTPEVTCVVVDVSHEDPEVKFNWYVDGVEVHNAKTKPREEQYNSTYRVVSVLTVLHQDWLNGKEYKCKVSNKALPAPIEKTISKAKGQPREPRVYTLPPCRDELTKNQVSLTCLVKGFYPSDIAVEWESNGQPENNYKTTPPVLVSDGSFTLYSKLTVDKSRWQQGNVFSCSVMHEALHNHYTQKSLSLSPG
heavy: EVQLVESGGGLVKPGGSLRLSCAASGFTFSSYSMNWVRQAPGKGLEWVSSISSSSSYIYYADSVKGRFTISRDNAKNSLYLQMNSLRAEDTAVYYCARGAPIGAAAGWFDPWGQGTLVTVSSASTKGPSVFPLAPSSKSTSGGTAALGCLVKDYFPEPVTVSWNSGALTSGVHTFPAVLQSSGLYSLSSVVTVPSSSLGTQTYICNVNHKPSNTKVDKKVEPKSCDKTHTCPPCPAPELLGGPSVFLFPPKPKDTLMISRTPEVTCVVVDVSHEDPEVKFNWYVDGVEVHNAKTKPREEQYNSTYRVVSVLTVLHQDWLNGKEYKCKVSNKALPAPIEKTISKAKGQPREPQVCTLPPSRDELTENQVSLTCLVKGFYPSDIAVEWESNGQPENNYKTTPPVLDSDGSFFLYSWLTVDKSRWQQGNVFSCSVMHEALHNHYTQKSLSLSPG
light: DIQMTQSPSSVSASVGDRVTITCRASQGISSWLAWYQQKPGKAPKLLIYAASSLQSGVPSRFSGSGSGTDFTLTISSLQPEDFATYYCQQGVSFPRTFGGGTKVEIKRTVAAPSVFIFPPSDEQLKSGTASVVCLLNNFYPREAKVQWKVDNALQSGNSQESVTEQDSKDSTYSLSSTLTLSKADYEKHKVYACEVTHQGLSSPVTKSFNRGEC
notes: Trispecific F3' format: CLEC12A scFv-Fc paired with NKG2D Fab-Fc; Stressed and control samples of the stability studies are the same molecule; also called AB0237

Kd (Human CD16b): 6.8 µM and 6 µM and 5.3 µM
Kd (Human CD64): 0.0052 µM
koff (Human CD64): 0.00025 s⁻¹
kon (Human CD64): 48000 M⁻¹ s⁻¹
Kd (De-sialylated CLEC12A): 0.00104 µM
koff (De-sialylated CLEC12A): 0.00104 s⁻¹
kon (De-sialylated CLEC12A): 1.01e+06 M⁻¹ s⁻¹
Kd (Human CLEC12A-His): 0.00181 µM
koff (Human CLEC12A-His): 0.0014 s⁻¹
kon (Human CLEC12A-His): 776000 M⁻¹ s⁻¹
Kd (Human CD16a V158): 0.194 µM
koff (Human CD16a V158): 0.0201 s⁻¹
kon (Human CD16a V158): 103000 M⁻¹ s⁻¹
Kd (mFc-hNKG2D [3]): 0.602 µM
koff (mFc-hNKG2D [3]): 0.127 s⁻¹
kon (mFc-hNKG2D [3]): 211000 M⁻¹ s⁻¹
Kd (Human CD32b): 6.5 µM and 5.6 µM and 5.2 µM and 7 µM
B2: AB0192 TriNKET (other)
chain: EVQLVESGGGVVQPGGSLRLSCAASGFTFNAFGMHWVRQAPGKCLEWVAFISSGSTSIYYANTVKGRFTISRDNSKNTLYLQMNSLRAEDTAVYYCARDGYPTGGAMDYWGQGTSVTVSSGGGGSGGGGSGGGGSGGGGSDIQMTQSPSSLSASVGDRVTITCKASQDIYNYLSWFQQKPGKAPKPLIYRANILVSGVPSRFSGSGSGQDYTFTISSLQPEDIATYYCLQFDAFPFTFGCGTKLEIKGSDKTHTCPPCPAPELLGGPSVFLFPPKPKDTLMISRTPEVTCVVVDVSHEDPEVKFNWYVDGVEVHNAKTKPREEQYNSTYRVVSVLTVLHQDWLNGKEYKCKVSNKALPAPIEKTISKAKGQPREPRVYTLPPCRDELTKNQVSLTCLVKGFYPSDIAVEWESNGQPENNYKTTPPVLVSDGSFTLYSKLTVDKSRWQQGNVFSCSVMHEALHNHYTQKSLSLSPG
heavy: EVQLVESGGGLVKPGGSLRLSCAASGFTFSSYSMNWVRQAPGKGLEWVSSISSSSSYIYYADSVKGRFTISRDNAKNSLYLQMNSLRAEDTAVYYCARGAPIGAAAGWFDPWGQGTLVTVSSASTKGPSVFPLAPSSKSTSGGTAALGCLVKDYFPEPVTVSWNSGALTSGVHTFPAVLQSSGLYSLSSVVTVPSSSLGTQTYICNVNHKPSNTKVDKKVEPKSCDKTHTCPPCPAPELLGGPSVFLFPPKPKDTLMISRTPEVTCVVVDVSHEDPEVKFNWYVDGVEVHNAKTKPREEQYNSTYRVVSVLTVLHQDWLNGKEYKCKVSNKALPAPIEKTISKAKGQPREPQVCTLPPSRDELTENQVSLTCLVKGFYPSDIAVEWESNGQPENNYKTTPPVLDSDGSFFLYSWLTVDKSRWQQGNVFSCSVMHEALHNHYTQKSLSLSPG
light: DIQMTQSPSSVSASVGDRVTITCRASQGISSWLAWYQQKPGKAPKLLIYAASSLQSGVPSRFSGSGSGTDFTLTISSLQPEDFATYYCQQGVSFPRTFGGGTKVEIKRTVAAPSVFIFPPSDEQLKSGTASVVCLLNNFYPREAKVQWKVDNALQSGNSQESVTEQDSKDSTYSLSSTLTLSKADYEKHKVYACEVTHQGLSSPVTKSFNRGEC
notes: the condition stands under assay; also called AB0192 Lot AB0192-005
